Measured values taken from the supplement of paper PMC12764529.
± gives the half width of the 95% confidence interval.

Columns and labels:
[1] = folding stability dG unfold (combined trypsin and chymotrypsin); higher = more stable
Method in brief: (§1)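 Only designs with AlphaFold2 dimer inter-PAE above 15 were retained; each was a mini-protein under 80 residues with no cysteine, in a PA-tagged cDNA display construct. After digestion with trypsin and chymotrypsin and sequencing, K50 was inferred by Bayesian fitting of counts, and unfolding free energy was derived per protease or combined against a sequence-predicted unfolded-state K50 and a shared folded-state K50.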

[2] = folding stability dG unfold from chymotrypsin proteolysis; higher = more stable
Method in brief: as §1

[3] = folding stability dG unfold from trypsin proteolysis; higher = more stable
Procedure: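 Folding stability of de novo designed mini-proteins (<80 aa, no Cys; designed by TrROS, TrMRF, ProteinMPNN and the joint model) was measured by cDNA display proteolysis with trypsin and chymotrypsin. Each protease was used at 11 concentrations in a threefold dilution series plus a no-protease condition. K50 was inferred by Bayesian fitting of sequencing counts, and dG unfold was derived against a sequence-predicted unfolded-state K50 (Tsuboyama et al. method). Sequences shown include variable-length N-terminal GS-type padding (SAGGSAGG...) inside a display construct carrying a PA tag. Rows were kept only if the AF2 dimer inter-PAE was >15, to exclude likely homo-oligomers.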

Sequence | folding stability dG unfold [1] | folding stability dG unfold [2] | folding stability dG unfold [3]
SAGGSAGGSAGGGMEFSTVTVKRTLKTLGKTEVTTVPVVNPVPPPPPLGPENIARSRGVLSAGGSAGGSAGG [r7_79_JUSTAS] | < -1 kcal/mol | -0.0494 ± 0.21 kcal/mol | –
SSSSLLKSSTEEVEVSTTFTKTSPDGSLTPVGTTTEVVTKTVKTVPKEILEKLKKEKEKPLPPEGNLGYLSA [r9_1192_JUSTAS] | 0.000763 ± 0.41 kcal/mol | 0.495 ± 0.36 kcal/mol | –
SAGGSAGGSAGGVRIPPGHWKHRLGFPNGKENEFNIPPGAPIEIPPNADDVKIQEIEPVPSAGGSAGGSAGG [r7_542_TrROS] | < -1 kcal/mol | -0.251 ± 0.36 kcal/mol | –
SAGGSAGGMPVVVETRPDPETGNEIVRITVPKPNYTLVLRRDSQGKETLLAEIGPYTPDDPGLLSAGGSAGG [r6_149_JUSTAS] | -0.00962 ± 0.23 kcal/mol | 0.474 ± 0.18 kcal/mol | –
SAGGSAGGSAGGSKVNDVTAEKNFLVFTEDGRVLGKGEVERAFAAGAGPIGAVPLPPGASAGGSAGGSAGGS [r4_47_TrMRF] | < -1 kcal/mol | -0.54 ± 0.23 kcal/mol | –
SAGGSAGGSAGGMTTLVLPAEVEPVPDGVRVRLPDGEDLYVPPGERVERTPDRVEVTLGSAGGSAGGSAGGS [r10_305_JUSTAS] | -0.448 ± 0.25 kcal/mol | 0.383 ± 0.058 kcal/mol | –
SAGGSAGGSAGNISSLPPTPITGSSLKRFVVKRPDGTEEEVTLEITYYPETGKEIISTIKSAGGSAGGSAGG [r11_1024_JUSTAS] | -0.0512 ± 0.21 kcal/mol | 0.107 ± 0.31 kcal/mol | –
SAGGSAGGPPPVRVTIETETTTTFPNGTPRTTTNTVVLDAPEEEAEAAVAAIPASVVKSVARTGSAGGSAGG [r6_985_JUSTAS] | -0.187 ± 0.24 kcal/mol | 0.486 ± 0.057 kcal/mol | –
SAGGSAGGSAGGKRRIQIPPDDPGMTAEQLADRLQKEFPENGVPVEITNIDDYGYIEIESAGGSAGGSAGGS [r10_579_TrROS] | 0.443 ± 0.088 kcal/mol | 0.962 ± 0.021 kcal/mol | –
SAGGGSMVEKTISTTDPKYVKILKKLEEAPEDEVVTIKEPNKDIEVLSFDKVDDNYKLLMKLPPSILSAGGS [r16_404_JUSTAS] | -0.773 ± 0.46 kcal/mol | -0.454 ± 0.38 kcal/mol | –
TLSPEEIEAEARARAEAAVAARPDSAADVELDVPVEFPVRTERRDPRSDRWSRSLSTVRLRLRLRLARGAGS [r1_90_JUSTAS] | -0.468 ± 0.24 kcal/mol | 0.343 ± 0.2 kcal/mol | –
SAGGSAGGSAGGMNTPIVVETEDLPSSRPVEEVKAEAAPKGYTEVKAYPDGTVVITKVRSSAGGSAGGSAGG [r11_961_JUSTAS] | 0.164 ± 0.21 kcal/mol | 0.607 ± 0.047 kcal/mol | –
SAGGSAGGSAGGMTVTVTVPPEKVEETIKKLGSKAKSVEREVLETPLGEKVAVVTVTLENSAGGSAGGSAGG [r7_904_JUSTAS] | 0.047 ± 0.093 kcal/mol | 0.647 ± 0.023 kcal/mol | –
SSTSMSTEPNRTVTTTTEKGGRSTVTTTTTTTFTASGETTTTTPVTTTTPPPPLGVYKDPAGVTRTRPLLSA [r9_456_JUSTAS] | -0.012 ± 0.072 kcal/mol | 0.339 ± 0.079 kcal/mol | –
SAGGSAGGSAPNIRAKIEPKPDPGGPKLTIDVEDPDNPELPAEEVAKALEEEFPPDKIEPVSAGGSAGGSAG [r3_226_TrROS] | < -1 kcal/mol | -0.7 ± 0.083 kcal/mol | –
SAGGSAGGSDPTYVEVRTLAGPAGPTRVLIRPSSGEWLEAEFPVDRPVVFFVPADVEVEVLPDSAGGSAGGS [r12_517_TrMRF] | 0.0902 ± 0.054 kcal/mol | 0.498 ± 0.048 kcal/mol | –
SAGGGMKTSKVSTSTTTTTVPGTGAPVTVEVTSTTTTFGPNGPAVVTTTSLTYDEAGTPTTTTTTTLSAGGS [r16_200_JUSTAS] | -0.133 ± 0.13 kcal/mol | 0.46 ± 0.11 kcal/mol | –
SAGGEVKFEKNEDGTITVTVKAESEEEALEALKKLLEEQGFEIEEIKVERLPNGEVKITIKIKPKKPSAGGS [r8_253_TrROS_Hall] | – | – | 3.65 ± 0.4 kcal/mol
SAGGGSMVIPVSPEEKEAALKLLEALPSKDVKVTVTDPATGTTTTLTPEEAKKLIEATDTPLVLTLSSAGGS [r16_263_JUSTAS] | 3.42 ± 0.16 kcal/mol | 2.92 ± 0.08 kcal/mol | –
SAGGMTVVSTETDTATGRPVRTVRLPPEASLRELAALDGWVRLVDPAPDREVELPAEDPEAVVEALLASAGG [r13_604_JUSTAS] | -0.504 ± 0.22 kcal/mol | 0.0196 ± 0.13 kcal/mol | –
SAGGSAGGKTKVKGTLIGPNGPPVEVEGEALLPDGREYDVHIDAVLLPDPEGEPTVVVKVEVKPSAGGSAGG [r6_334_TrMRF] | -0.127 ± 0.23 kcal/mol | 0.168 ± 0.051 kcal/mol | –
SAGGSAGGSAGGMAVVVDSPEEAEEVIEELERSFPALGAKVVVPRVQVGDKLVLPLGLELSAGGSAGGSAGG [r7_588_TrMRF] | -0.501 ± 0.15 kcal/mol | 0.0463 ± 0.068 kcal/mol | –
SAGPWKIEVEQYDPNGKKEEIEDPEDLLDLAKDLPPNRMVHIKIPNGRETIMFQNPDGNVFVLKIERPESAG [r5_506_TrROS] | -0.374 ± 0.34 kcal/mol | -0.0396 ± 0.33 kcal/mol | –
